{"source": "patent US20260193335A1", "about": "(ZOETIS SERVICES, published 2026)"}
{"target": "T1, Feline FcRn (complex of FcRn-α subunit and β-microglobulin, C-terminal His tag) (feline, UniProt A0ABI7ZNY9 23-296; Q5MGS7 21-118)", "T1 construct": "treated here as one molecule", "experiment": "SPR Biacore, biotin-FcRn on SA chip, pH 6", "method": "Feline FcRn was isolated, prepared and mutant Fc IgGs were assayed against feline FcRn according to Strietzel et. al., discussed above. Standard PCR was used to amplify feline FcRn-α subunit and β-microglobulin. FcRn-α subunit and β-microglobulin were co-transfected into HEK 293 cells and the FcRn complex was purified by IMAC affinity purification via the c-terminal His tag. FcRn complex was biotin labeled through BirA enzymatic biotinylatoin reaction. KD's were measured by Biacore T200 (GE Healthcare, Pittsburgh, PA, USA) or Biacore 8K (Cytiva, Marlborough, MA, USA) using a SA sensor chip.\nFcRn was captured on the surface of the sensor using a modified SA capture method. 10 mM MES; 150 mM NaCl; 0.005% Tween20; 0.5 mg/mL BSA; pH6 was used as capture, method running buffer and titrations. 1×HBS-P, 0.5 mg/mL BSA; pH7.4 was also used for method running buffer and titrations. Fc mutant IgGs were flowed over receptor surfaces and affinity was determined using T200 evaluation software or Biacore Insight Evaluation software. Blank runs containing buffer only were subtracted out from all runs. Flow cells were regenerated using 50 mM Tris pH8 or pH9. Runs were performed at 15° C.", "units": {"Kd": "nM"}}
{"binder": "mAb3 (felinized anti-NGF antibody ZTS-768) S428K, feline IgG1a (antibody, also called mAb3 ID No. 97) heavy: DVQLVESGGDLVKPGGSLRLTCVASGFTYSNYWMHWVRQAPGKGLQWVARIDPYGGGTKHNEKFKRRFTISRDNAKNTLYLQMNSLKTEDTATYYCVRSGYDYYFDVWGQGTLVTVSSASTTAPSVFPLAPSCGTTSGATVALACLVLGYFPEPVTVSWNSGALTSGVHTFPAVLQASGLYSLSSMVTVPSSRWLSDTFTCNVAHPPSNTKVDKTVRKTDHPPGPKPCDCPKCPPPEMLGGPSIFIFPPKPKDTLSISRTPEVTCLVVDLGPDDSDVQITWFVDNTQVYTAKTSPREEQFNSTYRVVSVLPILHQDWLKGKEFKCKVNSKSLPSPIERTISKAKGQPHEPQVYVLPPAQEELSRNKVSVTCLIKSFHPPDIAVEWEITGQPEPENNYRTTPPQLDSDGTYFVYSKLSVDRSHWQRGNTYTCSVKHEALHSHHTQKSLTQSPGK light: EIQMTQSPSSLSASPGDRVTITCRASENIYSFLAWYQQKPGKVPKLLIYNANTLAEGVPSRFSGSGSGTDFTLTISSLEPEDAATYYCQHHFGTPFTFGSGTKLEIKRSDAQPSVFLFQPSLDELHTGSASIVCILNDFYPKEVNVKWKVDGVVQNKGIQESTTEQNSKDSTYSLSSTLTMSSTEYQSHEKFSCEVTHKSLASTLVKSFQRSECQRE", "Kd": 22.2}
{"binder": "mAb3 (felinized anti-NGF antibody ZTS-768) S428L and S434F, feline IgG1a (antibody, also called mAb3 ID No. 110) heavy: DVQLVESGGDLVKPGGSLRLTCVASGFTYSNYWMHWVRQAPGKGLQWVARIDPYGGGTKHNEKFKRRFTISRDNAKNTLYLQMNSLKTEDTATYYCVRSGYDYYFDVWGQGTLVTVSSASTTAPSVFPLAPSCGTTSGATVALACLVLGYFPEPVTVSWNSGALTSGVHTFPAVLQASGLYSLSSMVTVPSSRWLSDTFTCNVAHPPSNTKVDKTVRKTDHPPGPKPCDCPKCPPPEMLGGPSIFIFPPKPKDTLSISRTPEVTCLVVDLGPDDSDVQITWFVDNTQVYTAKTSPREEQFNSTYRVVSVLPILHQDWLKGKEFKCKVNSKSLPSPIERTISKAKGQPHEPQVYVLPPAQEELSRNKVSVTCLIKSFHPPDIAVEWEITGQPEPENNYRTTPPQLDSDGTYFVYSKLSVDRSHWQRGNTYTCSVLHEALHFHHTQKSLTQSPGK light: EIQMTQSPSSLSASPGDRVTITCRASENIYSFLAWYQQKPGKVPKLLIYNANTLAEGVPSRFSGSGSGTDFTLTISSLEPEDAATYYCQHHFGTPFTFGSGTKLEIKRSDAQPSVFLFQPSLDELHTGSASIVCILNDFYPKEVNVKWKVDGVVQNKGIQESTTEQNSKDSTYSLSSTLTMSSTEYQSHEKFSCEVTHKSLASTLVKSFQRSECQRE", "Kd": 3.38}
{"binder": "mAb3 (felinized anti-NGF antibody ZTS-768) S428L and S434H, feline IgG1a (antibody, also called mAb3 ID No. 109) heavy: DVQLVESGGDLVKPGGSLRLTCVASGFTYSNYWMHWVRQAPGKGLQWVARIDPYGGGTKHNEKFKRRFTISRDNAKNTLYLQMNSLKTEDTATYYCVRSGYDYYFDVWGQGTLVTVSSASTTAPSVFPLAPSCGTTSGATVALACLVLGYFPEPVTVSWNSGALTSGVHTFPAVLQASGLYSLSSMVTVPSSRWLSDTFTCNVAHPPSNTKVDKTVRKTDHPPGPKPCDCPKCPPPEMLGGPSIFIFPPKPKDTLSISRTPEVTCLVVDLGPDDSDVQITWFVDNTQVYTAKTSPREEQFNSTYRVVSVLPILHQDWLKGKEFKCKVNSKSLPSPIERTISKAKGQPHEPQVYVLPPAQEELSRNKVSVTCLIKSFHPPDIAVEWEITGQPEPENNYRTTPPQLDSDGTYFVYSKLSVDRSHWQRGNTYTCSVLHEALHHHHTQKSLTQSPGK light: EIQMTQSPSSLSASPGDRVTITCRASENIYSFLAWYQQKPGKVPKLLIYNANTLAEGVPSRFSGSGSGTDFTLTISSLEPEDAATYYCQHHFGTPFTFGSGTKLEIKRSDAQPSVFLFQPSLDELHTGSASIVCILNDFYPKEVNVKWKVDGVVQNKGIQESTTEQNSKDSTYSLSSTLTMSSTEYQSHEKFSCEVTHKSLASTLVKSFQRSECQRE", "Kd": 13.1}
{"binder": "mAb3 (felinized anti-NGF antibody ZTS-768) S428L and S434L, feline IgG1a (antibody, also called mAb3 ID No. 111) heavy: DVQLVESGGDLVKPGGSLRLTCVASGFTYSNYWMHWVRQAPGKGLQWVARIDPYGGGTKHNEKFKRRFTISRDNAKNTLYLQMNSLKTEDTATYYCVRSGYDYYFDVWGQGTLVTVSSASTTAPSVFPLAPSCGTTSGATVALACLVLGYFPEPVTVSWNSGALTSGVHTFPAVLQASGLYSLSSMVTVPSSRWLSDTFTCNVAHPPSNTKVDKTVRKTDHPPGPKPCDCPKCPPPEMLGGPSIFIFPPKPKDTLSISRTPEVTCLVVDLGPDDSDVQITWFVDNTQVYTAKTSPREEQFNSTYRVVSVLPILHQDWLKGKEFKCKVNSKSLPSPIERTISKAKGQPHEPQVYVLPPAQEELSRNKVSVTCLIKSFHPPDIAVEWEITGQPEPENNYRTTPPQLDSDGTYFVYSKLSVDRSHWQRGNTYTCSVLHEALHLHHTQKSLTQSPGK light: EIQMTQSPSSLSASPGDRVTITCRASENIYSFLAWYQQKPGKVPKLLIYNANTLAEGVPSRFSGSGSGTDFTLTISSLEPEDAATYYCQHHFGTPFTFGSGTKLEIKRSDAQPSVFLFQPSLDELHTGSASIVCILNDFYPKEVNVKWKVDGVVQNKGIQESTTEQNSKDSTYSLSSTLTMSSTEYQSHEKFSCEVTHKSLASTLVKSFQRSECQRE", "Kd": 0.312}
{"binder": "mAb3 (felinized anti-NGF antibody ZTS-768) S428L and S434P, feline IgG1a (antibody) heavy: DVQLVESGGDLVKPGGSLRLTCVASGFTYSNYWMHWVRQAPGKGLQWVARIDPYGGGTKHNEKFKRRFTISRDNAKNTLYLQMNSLKTEDTATYYCVRSGYDYYFDVWGQGTLVTVSSASTTAPSVFPLAPSCGTTSGATVALACLVLGYFPEPVTVSWNSGALTSGVHTFPAVLQASGLYSLSSMVTVPSSRWLSDTFTCNVAHPPSNTKVDKTVRKTDHPPGPKPCDCPKCPPPEMLGGPSIFIFPPKPKDTLSISRTPEVTCLVVDLGPDDSDVQITWFVDNTQVYTAKTSPREEQFNSTYRVVSVLPILHQDWLKGKEFKCKVNSKSLPSPIERTISKAKGQPHEPQVYVLPPAQEELSRNKVSVTCLIKSFHPPDIAVEWEITGQPEPENNYRTTPPQLDSDGTYFVYSKLSVDRSHWQRGNTYTCSVLHEALHPHHTQKSLTQSPGK light: EIQMTQSPSSLSASPGDRVTITCRASENIYSFLAWYQQKPGKVPKLLIYNANTLAEGVPSRFSGSGSGTDFTLTISSLEPEDAATYYCQHHFGTPFTFGSGTKLEIKRSDAQPSVFLFQPSLDELHTGSASIVCILNDFYPKEVNVKWKVDGVVQNKGIQESTTEQNSKDSTYSLSSTLTMSSTEYQSHEKFSCEVTHKSLASTLVKSFQRSECQRE", "Kd": 18.8}
{"binder": "mAb3 (felinized anti-NGF antibody ZTS-768) S428L and S434W, feline IgG1a (antibody, also called mAb3 ID No. 113) heavy: DVQLVESGGDLVKPGGSLRLTCVASGFTYSNYWMHWVRQAPGKGLQWVARIDPYGGGTKHNEKFKRRFTISRDNAKNTLYLQMNSLKTEDTATYYCVRSGYDYYFDVWGQGTLVTVSSASTTAPSVFPLAPSCGTTSGATVALACLVLGYFPEPVTVSWNSGALTSGVHTFPAVLQASGLYSLSSMVTVPSSRWLSDTFTCNVAHPPSNTKVDKTVRKTDHPPGPKPCDCPKCPPPEMLGGPSIFIFPPKPKDTLSISRTPEVTCLVVDLGPDDSDVQITWFVDNTQVYTAKTSPREEQFNSTYRVVSVLPILHQDWLKGKEFKCKVNSKSLPSPIERTISKAKGQPHEPQVYVLPPAQEELSRNKVSVTCLIKSFHPPDIAVEWEITGQPEPENNYRTTPPQLDSDGTYFVYSKLSVDRSHWQRGNTYTCSVLHEALHWHHTQKSLTQSPGK light: EIQMTQSPSSLSASPGDRVTITCRASENIYSFLAWYQQKPGKVPKLLIYNANTLAEGVPSRFSGSGSGTDFTLTISSLEPEDAATYYCQHHFGTPFTFGSGTKLEIKRSDAQPSVFLFQPSLDELHTGSASIVCILNDFYPKEVNVKWKVDGVVQNKGIQESTTEQNSKDSTYSLSSTLTMSSTEYQSHEKFSCEVTHKSLASTLVKSFQRSECQRE", "Kd": 23.6}
{"binder": "mAb3 (felinized anti-NGF antibody ZTS-768) S428L, feline IgG1a (antibody, also called mAb3 ID No. 98) heavy: DVQLVESGGDLVKPGGSLRLTCVASGFTYSNYWMHWVRQAPGKGLQWVARIDPYGGGTKHNEKFKRRFTISRDNAKNTLYLQMNSLKTEDTATYYCVRSGYDYYFDVWGQGTLVTVSSASTTAPSVFPLAPSCGTTSGATVALACLVLGYFPEPVTVSWNSGALTSGVHTFPAVLQASGLYSLSSMVTVPSSRWLSDTFTCNVAHPPSNTKVDKTVRKTDHPPGPKPCDCPKCPPPEMLGGPSIFIFPPKPKDTLSISRTPEVTCLVVDLGPDDSDVQITWFVDNTQVYTAKTSPREEQFNSTYRVVSVLPILHQDWLKGKEFKCKVNSKSLPSPIERTISKAKGQPHEPQVYVLPPAQEELSRNKVSVTCLIKSFHPPDIAVEWEITGQPEPENNYRTTPPQLDSDGTYFVYSKLSVDRSHWQRGNTYTCSVLHEALHSHHTQKSLTQSPGK light: EIQMTQSPSSLSASPGDRVTITCRASENIYSFLAWYQQKPGKVPKLLIYNANTLAEGVPSRFSGSGSGTDFTLTISSLEPEDAATYYCQHHFGTPFTFGSGTKLEIKRSDAQPSVFLFQPSLDELHTGSASIVCILNDFYPKEVNVKWKVDGVVQNKGIQESTTEQNSKDSTYSLSSTLTMSSTEYQSHEKFSCEVTHKSLASTLVKSFQRSECQRE", "Kd": 15.4}
{"binder": "mAb3 (felinized anti-NGF antibody ZTS-768) S428M, feline IgG1a (antibody, also called mAb3 ID No. 99) heavy: DVQLVESGGDLVKPGGSLRLTCVASGFTYSNYWMHWVRQAPGKGLQWVARIDPYGGGTKHNEKFKRRFTISRDNAKNTLYLQMNSLKTEDTATYYCVRSGYDYYFDVWGQGTLVTVSSASTTAPSVFPLAPSCGTTSGATVALACLVLGYFPEPVTVSWNSGALTSGVHTFPAVLQASGLYSLSSMVTVPSSRWLSDTFTCNVAHPPSNTKVDKTVRKTDHPPGPKPCDCPKCPPPEMLGGPSIFIFPPKPKDTLSISRTPEVTCLVVDLGPDDSDVQITWFVDNTQVYTAKTSPREEQFNSTYRVVSVLPILHQDWLKGKEFKCKVNSKSLPSPIERTISKAKGQPHEPQVYVLPPAQEELSRNKVSVTCLIKSFHPPDIAVEWEITGQPEPENNYRTTPPQLDSDGTYFVYSKLSVDRSHWQRGNTYTCSVMHEALHSHHTQKSLTQSPGK light: EIQMTQSPSSLSASPGDRVTITCRASENIYSFLAWYQQKPGKVPKLLIYNANTLAEGVPSRFSGSGSGTDFTLTISSLEPEDAATYYCQHHFGTPFTFGSGTKLEIKRSDAQPSVFLFQPSLDELHTGSASIVCILNDFYPKEVNVKWKVDGVVQNKGIQESTTEQNSKDSTYSLSSTLTMSSTEYQSHEKFSCEVTHKSLASTLVKSFQRSECQRE", "Kd": 6.89}
